How the values were obtained:
[1] = target: T1, Soluble EBV gH/gL complex (poly-histidine tagged) (Epstein Barr Virus, UniProt P03231 19-679; P03212 24-137); experiment: BLI kinetics, KD on gH/gL against KD on gH/gL/gp42
T1 construct: also called gH/gL Avi-His probe

[2] = target: T1, Soluble EBV gH/gL complex …; experiment: BLI (Octet), His-captured soluble gH/gL on HIS1K biosensor, Fab in solution, 1:1 global fit; target gH/gL without gp42
[3] = target: T2, Soluble EBV gH/gL/gp42 complex (HIS-tagged) (Epstein Barr Virus, UniProt P03231 19-679; P03212 24-137; P03205 33-223); experiment: BLI (Octet), His-captured soluble gH/gL/gp42 on HIS1K biosensor, Fab in solution, 1:1 global fit; target gH/gL/gp42 (gp42 present)
T2 sequence (P03231 19-679 limits assumed, chain 1 of 3): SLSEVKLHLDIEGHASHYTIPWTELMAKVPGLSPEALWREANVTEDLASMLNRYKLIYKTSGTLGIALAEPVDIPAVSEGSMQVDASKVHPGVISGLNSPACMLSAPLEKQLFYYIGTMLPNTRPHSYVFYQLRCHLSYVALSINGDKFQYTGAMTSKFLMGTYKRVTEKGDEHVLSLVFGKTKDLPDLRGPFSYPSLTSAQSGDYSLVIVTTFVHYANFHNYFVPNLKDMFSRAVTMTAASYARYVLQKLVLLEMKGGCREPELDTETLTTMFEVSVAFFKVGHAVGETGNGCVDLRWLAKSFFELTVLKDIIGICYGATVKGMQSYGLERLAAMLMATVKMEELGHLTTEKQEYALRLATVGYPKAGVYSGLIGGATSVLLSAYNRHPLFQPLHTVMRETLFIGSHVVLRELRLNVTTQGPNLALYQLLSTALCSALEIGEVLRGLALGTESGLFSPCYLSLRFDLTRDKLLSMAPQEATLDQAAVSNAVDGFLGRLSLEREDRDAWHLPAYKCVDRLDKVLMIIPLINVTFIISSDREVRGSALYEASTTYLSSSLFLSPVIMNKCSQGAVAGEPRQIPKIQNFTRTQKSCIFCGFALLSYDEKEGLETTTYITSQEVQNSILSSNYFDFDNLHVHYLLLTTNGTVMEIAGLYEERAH
T2 sequence (P03212 24-137 limits assumed, chain 2 of 3): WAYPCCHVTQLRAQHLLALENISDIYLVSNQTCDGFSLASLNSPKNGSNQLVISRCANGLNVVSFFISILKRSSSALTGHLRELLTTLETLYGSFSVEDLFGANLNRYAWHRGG
T2 sequence (P03205 33-223 limits assumed, chain 3 of 3): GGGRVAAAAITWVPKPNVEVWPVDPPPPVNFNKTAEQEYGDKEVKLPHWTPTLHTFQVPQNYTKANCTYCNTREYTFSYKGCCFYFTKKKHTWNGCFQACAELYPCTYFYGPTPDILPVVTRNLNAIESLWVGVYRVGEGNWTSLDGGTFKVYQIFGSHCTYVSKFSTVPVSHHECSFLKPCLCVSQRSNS

[4] = target: T1, Soluble EBV gH/gL complex …; experiment: Biolayer interferometry (Octet), His-tagged gH/gL on HIS1K biosensors, Fab dilution series (top curve labelled 2.50E-08), 1:1 global fit; same panel as FIG. 1C
[5] = target: T2, Soluble EBV gH/gL/gp42 complex …; experiment: Biolayer interferometry (Octet), His-tagged gH/gL/gp42 on HIS1K biosensors, Fab dilution series (top curve labelled 2.50E-08), 1:1 global fit; same panel as FIG. 1C
[6] = target: T1, Soluble EBV gH/gL complex …; experiment: Biolayer interferometry (Octet), His-tagged gH/gL on HIS1K biosensors, Fab dilution series (top curve labelled 2.50E-08), 300 s association, 900 s dissociation, 1:1 global fit
[7] = target: T2, Soluble EBV gH/gL/gp42 complex …; experiment: Biolayer interferometry (Octet), His-tagged gH/gL/gp42 on HIS1K biosensors, Fab dilution series (top curve labelled 2.50E-08), 300 s association, 900 s dissociation, 1:1 global fit
[8] = target: T1, Soluble EBV gH/gL complex …; experiment: Biolayer interferometry (Octet), His-tagged gH/gL on HIS1K biosensors, Fab dilution series (top curve labelled 5.00E-08), 300 s association, 900 s dissociation, 1:1 global fit
[9] = target: T2, Soluble EBV gH/gL/gp42 complex …; experiment: Biolayer interferometry (Octet), His-tagged gH/gL/gp42 on HIS1K biosensors, Fab dilution series (top curve labelled 1.00E-07), 300 s association, 900 s dissociation, 1:1 global fit
[10] = target: T1, Soluble EBV gH/gL complex …; experiment: Biolayer interferometry (Octet), His-tagged gH/gL on HIS1K biosensors, Fab dilution series (top curve labelled 2.50E-08), 300 s association, 900 s dissociation, 1:1 global fit; remark: listed apart in the source
[11] = target: T2, Soluble EBV gH/gL/gp42 complex …; experiment: Biolayer interferometry (Octet), His-tagged gH/gL/gp42 on HIS1K biosensors, Fab dilution series (top curve labelled 5.00E-08), 300 s association, 900 s dissociation, 1:1 global fit

T1 sequence (P03231 19-679 limits assumed, chain 1 of 2): as the sequence (P03231 19-679 limits assumed, chain 1 of 3) above
T1 sequence (P03212 24-137 limits assumed, chain 2 of 2): as the sequence (P03212 24-137 limits assumed, chain 2 of 3) above

B1: Fab fragment of 769B10 (Fab, V domains shown)
VH: EVQLVESGGGIVQPGGSLRVSCAASGFSLSDHYMDWVRQAPGRGLEWVGRSRNKENSFTTEFAASVRRRFTISRDDSNSLLHLQMNNLKSEDTAVYFCARVGYYDLWSGYSGNWYIDVWGRGTLVIVSS
VL: DIQMTQSPSSLSASLGDSVTITCRASQTMSNFLNWYQQKPGKAPKFLIYAASRLQSGVPSRFSGSGSGTQFTLTISNLQPEDFATYYCQQSFIFPYTFGGGTKVEVE
notes: also called 769B10 Fab; B10 Fab
With B1 as the binder, how does the “fold stronger affinity than for gH/gL/gp42” value [1] read?
Its value is 10 fold.

What about the Kd [2] of the same binder?
The Kd was 0.0307 nM.

What about the Kd [3] of the same binder?
The Kd was 0.458 nM.

And the koff [4]?
The koff was 1.51e-05 s⁻¹.

What about the kon [4] of the same binder?
The kon was 490000 M⁻¹ s⁻¹.

What about the koff [5] of the same binder?
The koff was 2.58e-05 s⁻¹.

And the kon [5]?
The kon was 564000 M⁻¹ s⁻¹.

And the koff [6]?
The koff was 1.51e-05 s⁻¹.

And the kon [6]?
The kon was 490000 M⁻¹ s⁻¹.

And the koff [7]?
Its koff is 2.58e-05 s⁻¹.

And the kon [7]?
The kon was 564000 M⁻¹ s⁻¹.

B2: Fab fragment of antibody 769C2 (Fab, V domains shown)
VH: EVQLVESGGGLVKPGGSLRLSCAASGFTFSTYAMDWVRQAPGKGLEWVSLISSRSSNIYYSDSVKGRFTISRDNAKNSLFLQMNSLRAEDTAVYYCAREAGGFHSHFDMWGQGTLVTVSS
VL: QSVLTQPASVSGSLGQSVTISCTGTSSDVGGYDYVSWYQQHPGKAPKLMIFEVNNRPSGVSTRFSGSKSGNTASLTISGLQAEDEADYYCNSYSTTTTWVFGGGTSLT
notes: also called 769C2 Fab
Which results are given for B2?
Kd [8]: 1.16 nM; koff [8]: 0.000292 s⁻¹; kon [8]: 252000 M⁻¹ s⁻¹; Kd [9]: 2.05 nM; koff [9]: 0.000425 s⁻¹; kon [9]: 207000 M⁻¹ s⁻¹

B3: Fab fragment of antibody 770F7 (Fab, V domains shown)
VH: QVQFQQWGAGLLKPSETLSLTCGVYGGSLSGYYWSWIRQTPGKGLEWIGEINHTGTTNYNPSLKSRVTMSVDTSKNQFSLKMSSLTAADTALYYCAREGAPRWALKRPSNWFDPWGQGTLVTVSS
VL: EIVLTQSPVSLSLSPGERATLSCRASQSISSTYLAWYQQIPGQAPRLLIYGASSRAAGIPDRFSGGGSGTDFTLTISRLEPEDFAVYYCQQYGSSPRSFGQGTKLEIK
notes: also called 770F7 Fab
What does the source list for B3?
Kd [10]: 0.317 nM; koff [10]: 0.000165 s⁻¹; kon [10]: 520000 M⁻¹ s⁻¹; Kd [11]: 0.207 nM; koff [11]: 0.000128 s⁻¹; kon [11]: 619000 M⁻¹ s⁻¹

From patent US20210171610A1 (US Dept. of Health and Human Services, published 2021)
